In test [1] the target is T1, human PD-1 on engineered CHO-S cells (W305-CHO-S.hPro1.C6) (human, UniProt Q15116 25-288).
T1 construct: whole, on cells; also called human PD-1 engineered cells; PD-1+ cells
Description: FACS on human PD-1 engineered cells. The method, then: (§1) Engineered human PD-1 expressing cells W305-CHO-S.hPro1.C6 were seeded at 1×10⁵ cells/well in U-bottom 96-well plates (COSTAR 3799). Antibodies with 3.16-fold titration in 1% BSA DPBS from 200 nM to 0.002 nM were added to the cells. The plates were incubated at 4° C. for 1 hour. After wash, […] 1:125 diluted PE-labeled goat anti-human antibody (Jackson 109-115-098) was added to each well and the plates were incubated at 4° C. for 1 hour. The binding of the antibodies onto the cells was tested by flow cytometry and the mean fluorescence intensity (MFI) was analyzed by FlowJo.

In test [2] the target is T2, human PD-1 ECD mouse Fc fusion (W305-hPro1.ECD.mFc) (human, UniProt Q15116 25-170).
T2 construct: extracellular domain; In-house protein; also called hPD-1-ECD; human PD-1 coated on the plate
T2 sequence (Q15116 25-170): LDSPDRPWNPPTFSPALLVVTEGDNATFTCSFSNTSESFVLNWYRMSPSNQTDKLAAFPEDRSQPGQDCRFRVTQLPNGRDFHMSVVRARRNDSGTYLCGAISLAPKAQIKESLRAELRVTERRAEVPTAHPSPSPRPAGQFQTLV
Description: dual-binding ELISA: human PD-1 ECD coated, antibody titrated, bound antibody detected with biotinylated human CTLA-4 ECD and streptavidin-HRP. The procedure: In order to test whether the bispecific antibodies could bind to both hPD-1 and hCTLA-4, an ELISA assay was developed as below. A 96-well ELISA plate (Nunc MaxiSorp, ThermoFisher) was coated overnight at 4° C. with 0.5 μg/ml antigen-1 (hPD-1-ECD, W305-hPro1.ECD.mFc) in carbonate-bicarbonate buffer. After a 1 hour blocking step with 2% (w/v) bovine serum albumin (Pierce) dissolved in PBS, serial dilutions of the different PD-1×CTLA-4 bispecific antibodies in PBS containing 2% BSA PBS were incubated on the plates for 1 hour at room temperature. Following the incubation, plates were washed three times with 300 μL per well of PBS containing 0.5% (v/v) Tween 20. […] After washing the plates three times, Streptavidin-HRP (Lifetechnologies, #SNN1004) (1:20000 diluted) was added and incubated on the plates for 1 hour at room temperature. After washing six times with […] per well of PBS containing 0.5% (v/v) Tween 20, 100 μL tetramethylbenzidine (TMB) substrate was added for the detection per well. The reaction was stopped after approximately 5 minutes through the addition of […] per well of 2 M HCl. The absorbance of the wells was measured at 450 nm with a multiwall plate reader (SpectraMax® M5e).
In general terms: An ELISA detects its analyte on a solid surface through an enzyme-linked reagent.

Test [3] concerns the target T1, human PD-1 on engineered CHO-S cells …. The experiment in a line: FACS competition: antibody titrated against human PD-L1 binding to PD-1; falling curve, half-maximal value labelled EC50 on the sheet. The procedure: (§2) In order to test whether the bispecific antibodies could block hPD-L1 binding to hPD-1 protein, a competitive FACS was conducted. […] Plates were incubated at 4° C. for 1 hour. After wash, the binding of W315-hPro1.ECD.mFc to cell expressive human PD-1 was detected by FITC-labeled goat anti-mouse antibody (abcam 98716 1:125). The competition binding of antibodies to the cells was tested by flow cytometry and the mean fluorescence intensity (MFI) was analyzed by FlowJo.

Test [4] shares this target. Description: FACS on human PD-1 engineered cells. The procedure:
as §1
This is another data set of the same source.

Test [5] has the same target. The experiment in a line: FACS competition: antibody titrated against human PD-L1 binding to PD-1; falling curve, half-maximal value labelled EC50 on the sheet. The procedure:
as §2
The source holds these as a separate data set.

The target in test [6] is T3, human CD19 on CD19+ B cell lines (Ramos, Raji) (human, UniProt P15391 20-556).
T3 construct: whole, on cells; also called CD19+ Ramos cells; CD19+ Raji cells
T3 sequence (looked up): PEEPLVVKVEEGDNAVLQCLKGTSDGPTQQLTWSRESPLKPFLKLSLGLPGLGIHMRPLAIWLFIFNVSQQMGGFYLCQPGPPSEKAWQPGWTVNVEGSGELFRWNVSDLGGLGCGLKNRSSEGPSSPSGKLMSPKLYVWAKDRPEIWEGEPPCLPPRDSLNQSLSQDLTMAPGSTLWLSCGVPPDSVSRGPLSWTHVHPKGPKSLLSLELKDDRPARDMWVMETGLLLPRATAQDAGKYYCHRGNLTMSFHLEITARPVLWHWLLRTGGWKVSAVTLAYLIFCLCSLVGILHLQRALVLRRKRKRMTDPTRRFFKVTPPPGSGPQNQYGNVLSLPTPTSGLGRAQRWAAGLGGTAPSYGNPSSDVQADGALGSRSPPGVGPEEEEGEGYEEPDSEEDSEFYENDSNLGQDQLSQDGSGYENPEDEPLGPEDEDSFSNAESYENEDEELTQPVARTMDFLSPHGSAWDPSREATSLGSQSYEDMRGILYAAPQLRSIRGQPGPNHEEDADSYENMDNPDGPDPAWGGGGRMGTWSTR
Description: FACS on CD19+ Ramos cells.

For test [7], the target named is T3, human CD19 on CD19+ B cell lines …. Description: flow cytometry on Ramos cells.
Test [8] shares this target. Description: cell-based or functional assay.
Test [9] deals with T4, human CD3 on CD3+ Jurkat cells (human, UniProt P07766 23-207; P09693 23-182; P04234 22-171).
T4 construct: whole, on cells; also called CD3 positive Jurkat cells
T4 sequence (P07766 23-207, chain 1 of 3): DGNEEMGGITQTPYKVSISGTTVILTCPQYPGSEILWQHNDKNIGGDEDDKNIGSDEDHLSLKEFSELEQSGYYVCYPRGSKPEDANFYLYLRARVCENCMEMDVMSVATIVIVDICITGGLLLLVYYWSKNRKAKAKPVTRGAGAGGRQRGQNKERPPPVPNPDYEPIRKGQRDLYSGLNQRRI
T4 sequence (P09693 23-182, chain 2 of 3): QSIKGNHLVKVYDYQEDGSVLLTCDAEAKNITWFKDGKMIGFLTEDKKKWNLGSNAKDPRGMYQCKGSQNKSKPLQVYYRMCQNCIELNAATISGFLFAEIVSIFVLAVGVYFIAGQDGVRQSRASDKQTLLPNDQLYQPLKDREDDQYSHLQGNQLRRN
T4 sequence (P04234 22-171, chain 3 of 3): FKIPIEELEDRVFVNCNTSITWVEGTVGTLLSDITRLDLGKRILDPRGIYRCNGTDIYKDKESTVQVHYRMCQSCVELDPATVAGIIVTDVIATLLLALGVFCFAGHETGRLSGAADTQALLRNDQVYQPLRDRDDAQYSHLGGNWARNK
The experiment in a line: flow cytometry on Jurkat cells. For orientation: A flow cytometer gives signals particle by particle.

Like-named read-outs stand apart in the source and are kept apart here.

T1 sequence (Q15116 25-288, change not shown): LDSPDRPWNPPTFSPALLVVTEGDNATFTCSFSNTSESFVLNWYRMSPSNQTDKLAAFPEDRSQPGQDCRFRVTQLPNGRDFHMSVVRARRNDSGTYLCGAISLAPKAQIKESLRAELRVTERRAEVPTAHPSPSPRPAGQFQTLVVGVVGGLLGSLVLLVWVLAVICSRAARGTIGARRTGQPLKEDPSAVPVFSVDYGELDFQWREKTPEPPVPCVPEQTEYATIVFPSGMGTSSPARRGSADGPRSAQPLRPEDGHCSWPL

B1: U6T1.G25R.IgG4, bispecific anti-PD-1 x CTLA-4 (as listed in Example 15) (bispecific antibody)
heavy: EVQLLESGGGLVQPGGSLRLSCAASGFTFSSHAMSWVRQAPGKGLEWVSTITGGGGSIYYADSVKGRFTISRDNSKNTLYLQMNSLRAEDTAVYYCAKNRAGEGYFDYWGQGTLVTVSSASTKGPSVFPLAPCSRSTSESTAALGCLVKDYFPEPVTVSWNSGALTSGVHTFPAVLQSSGLYSLSSVVTVPSSSLGTKTYTCNVDHKPSNTKVDKRVGGGGSGGGGSQVQLVESGGGVVQPGRSLRLSCAASGFTFSSYTMHWVRQAPGKGLEWVTFISYDGNNKYYADSVKGRFTISRDNSKNTLYLQMNSLRAEDTAIYYCARTGWLGPFDYWGQGTLVTVLEDLKNVFPPEVAVFEPSEAEISHTQKATLVCLATGFYPDHVELSWWVNGKEVHSGVCTDPQPLKEQPALQDSRYALSSRLRVSATFWQNPRNHFRCQVQFYGLSENDEWTQDRAKPVTQIVSAEAWGRYGPPCPPCPAPEFLGGPSVFLFPPKPKDTLMISRTPEVTCVVVDVSQEDPEVQFNWYVDGVEVHNAKTKPREEQFNSTYRVVSVLTVLHQDWLNGKEYKCKVSNKGLPSSIEKTISKAKGQPREPQVYTLPPSQEEMTKNQVSLTCLVKGFYPSDIAVEWESNGQPENNYKTTPPVLDSDGSFFLYSRLTVDKSRWQEGNVFSCSVMHEALHNHYTQKSLSLSLGK
light 1: SYELTQPLSVSVALGQTARITCGGDNIGNKDVHWYQQKPGQAPVLVIYRDSNRPSGIPEGFSGSNSGNTATLTISRAQAGDEADYYCQVWDSIWVFGGGTKLTVLGQPKAAPSVTLFPPSSEELQANKATLVCLISDFYPGAVTVAWKADSSPVKAGVETTTPSKQSNNKYAASSYLSLTPEQWKSHKSYSCQVTHEGSTVEKTVAPTECS
light 2: not shown
notes: kept apart; also called U6T1 in G25R format
As usually defined, the EC50 is the concentration that produces a half-maximal response. One may read the IC50 as the point on the concentration scale where inhibition reaches its midpoint. A high value points to a need for much substance. For B1, the EC50 stood at 1.81 nM in [1], 0.107 nM in test [2] and 1.42 nM in test [4]. The IC50 in [3] is 1.92 nM; in test [5], 1.67 nM.

B2: W3438-T3U4.F16-1.uIgG4.SP, bispecific trivalent anti-CD3 x CD19 (bispecific antibody)
heavy 1: QVQLVQSGAEVKKPGSSVKVSCKASGFAFTDYYIHWVRQAPGQGLEWMGWISPGNVNTKYNENFKGRVTITADKSTSTAYMELSSLRSEDTAVYYCARDGYSLYYFDYWGQGTLVTVLEDLKNVFPPEVAVFEPSEAEISHTQKATLVCLATGFYPDHVELSWWVNGKEVHSGVCTDPQPLKEQPALQDSRYALSSRLRVSATFWQNPRNHFRCQVQFYGLSENDEWTQDRAKPVTQIVSAEAWGRYGPPCPPCPAPEFLGGPSVFLFPPKPKDTLMISRTPEVTCVVVDVSQEDPEVQFNWYVDGVEVHNAKTKPREEQFNSTYRVVSVLTVLHQDWLNGKEYKCKVSNKGLPSSIEKTISKAKGQPREPQVYTLPPCQEEMTKNQVSLWCLVKGFYPSDIAVEWESNGQPENNYKTTPPVLDSDGSFFLYSRLTVDKSRWQEGNVFSCSVMHEALHNHYTQKSLSLSLGK
light 1: DIVMTQSPDSLAVSLGERATINCKSSQSLLNSRTRKNYLAWYQQKPGQPPKLLIYWASTRQSGVPDRFSGSGSGTDFTLTISSLQAEDVAVYYCTQSHTLRTFGGGTKVEIKPDIQNPDPAVYQLRDSKSSDKSVCLFTDFDSQTQVSQSKDSDVYITDKCVLDMRSMDFKSNSAVAWSQKSDFACANAFQNSIIPEDTFFPSPESS
heavy 2: QMQLVQSGPEVKKPGTSVKVSCKASGYAFTSYNMYWVRQARGQRLEWIGYIDPYNGDTTYNQKFKGRVTITRDMSTSTAYMELSSLRSEDTAVYYCLTTAYAMDYWGQGTLVTVSSASTKGPSVFPLAPCSRSTSESTAALGCLVKDYFPEPVTVSWNSGALTSGVHTFPAVLQSSGLYSLSSVVTVPSSSLGTKTYTCNVDHKPSNTKVDKRVGGGGSGGGGSQMQLVQSGPEVKKPGTSVKVSCKASGYAFTSYNMYWVRQARGQRLEWIGYIDPYNGDTTYNQKFKGRVTITRDMSTSTAYMELSSLRSEDTAVYYCLTTAYAMDYWGQGTLVTVSSASTKGPSVFPLAPCSRSTSESTAALGCLVKDYFPEPVTVSWNSGALTSGVHTFPAVLQSSGLYSLSSVVTVPSSSLGTKTYTCNVDHKPSNTKVDKRVESKYGPPCPPCPAPEFLGGPSVFLFPPKPKDTLMISRTPEVTCVVVDVSQEDPEVQFNWYVDGVEVHNAKTKPREEQFNSTYRVVSVLTVLHQDWLNGKEYKCKVSNKGLPSSIEKTISKAKGQPREPQVCTLPPSQEEMTKNQVSLSCAVKGFYPSDIAVEWESNGQPENNYKTTPPVLDSDGSFFLVSRLTVDKSRWQEGNVFSCSVMHEALHNHYTQKSLSLSLGK
light 2: DIQLTQSPSFLSASVGDRVTITCSASSTVNYMHWYQQKPGKAPKLLIYSTSNLASGVPSRFSGSGSGTEFTLTISSLQPEDFATYYCHQWSSYPYTFGQGTKLEIKRTVAAPSVFIFPPSDEQLKSGTASVVCLLNNFYPREAKVQWKVDNALQSGNSQESVTEQDSKDSTYSLSSTLTLSKADYEKHKVYACEVTHQGLSSPVTKSFNRGEC
notes: also called F16-Design_2-QQQQ (IgG4)
The term EC50 (read off the curve) denotes the concentration that produces a half-maximal response. Regarding B2, the “EC50 (read off the curve)” value in test [6] fell in the range of 1 to 2 nM. In test [7], this molecule returned a concentration for a half-maximal effect (EC50) of 1.8 nM. In test [8], the “EC50 of T-cell engaged malignant B cell killing” value was 0.0055 nM; the “EC50 of cell lysis, CD8+ T cells and Raji cells, 4 hours” value was found to be 3.2 nM. Moreover, the midpoint of the response in [9], the EC50, lay at 19.3 nM.

The values are drawn from US20240124586A1 (WUXI BIOLOGICS IRELAND, published 2024).
